Laboratory results taken from patent US20190031764A1 (published 2019).
Numbering of substitutions follows the chain as printed. Numbers in names are those of the source. Blank lines part the entries; values can stand above or below the binder they belong to.

Target: human PD1 antigen (human, UniProt Q15116 25-167)
Test: SPR

Sequence of human PD1 antigen (Q15116 25-167): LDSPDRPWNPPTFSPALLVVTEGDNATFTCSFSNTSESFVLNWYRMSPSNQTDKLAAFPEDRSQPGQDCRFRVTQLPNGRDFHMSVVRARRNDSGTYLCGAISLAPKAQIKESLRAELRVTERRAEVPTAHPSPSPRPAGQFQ

Kd: 1.38 nM
B1: S75D variant of PD1B244 (antibody, V domains shown)
VH: QVQLVQSGAEVKKPGSSVKVSCKASGGTFSSYAISWVRQAPGQGLEWMGGIIPIFDTANYAQKFQGRVTITADEDTSTAYMELSSLRSEDTAVYYCARPGLAAAYDTGSLDYWGQGTLVTVSS
VL: EIVLTQSPATLSLSPGERATLSCRASQSVRSYLAWYQQKPGQAPRLLIYDASNRATGIPARFSGSGSGTDFTLTISSLEPEDFAVYYCQQRNYWPLTFGQGTKVEIK

Kd: 1.36 nM
B2: S88D variant of PD1B244 (antibody, V domains shown)
VH: B1 VH with D75S, S88D
VL: B1 VL

Kd: 1.51 nM
B3: S84D variant of PD1B244 (antibody, V domains shown)
VH: B1 VH with D75S, S84D
VL: B1 VL
